Reference: article PMC2734569, “Functional mapping of the fission yeast DNA polymerase δ B-subunit Cdc1 by site-directed and random pentapeptide insertion mutagenesis” (BMC Molecular Biology, 2009)

What was measured:
Assay in all cases: two-hybrid; LexA-Cdc1 bait (pBTM116 or pBTM116BN) with Gal4 activation domain-Cdc27 prey (pGAD2F-Cdc27) in S. cerevisiae CTY10-5d; ONPG liquid culture beta-galactosidase assay, mean of triplicates, as percent of wild-type Cdc1
Conditions in all cases: partners not purified
Cdc1-J16 = molecular target: T1, Cdc1-J16 (Schizosaccharomyces pombe, UniProt P87324 1-462, Val-GlyGlyThrProVal-Asp)
T1 construct: Cdc1, S. pombe, with a pentapeptide inserted after residue 160; source: yeast two-hybrid fusion, in S. cerevisiae CTY10-5d
T1 sequence (looked up): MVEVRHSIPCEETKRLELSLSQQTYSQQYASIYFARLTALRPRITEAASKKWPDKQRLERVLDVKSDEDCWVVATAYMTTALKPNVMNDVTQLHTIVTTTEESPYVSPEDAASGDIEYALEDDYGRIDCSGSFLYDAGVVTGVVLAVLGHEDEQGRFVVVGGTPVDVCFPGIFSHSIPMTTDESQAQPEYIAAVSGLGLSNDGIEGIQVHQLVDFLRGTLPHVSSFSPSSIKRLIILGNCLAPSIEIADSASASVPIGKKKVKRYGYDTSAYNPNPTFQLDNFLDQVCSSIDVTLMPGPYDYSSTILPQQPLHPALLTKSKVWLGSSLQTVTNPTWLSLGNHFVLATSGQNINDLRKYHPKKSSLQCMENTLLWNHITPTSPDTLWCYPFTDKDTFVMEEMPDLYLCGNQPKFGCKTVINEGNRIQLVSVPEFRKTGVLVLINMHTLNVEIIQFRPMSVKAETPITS

Cdc1-A9 = molecular target: T2, Cdc1-A9 (Schizosaccharomyces pombe, UniProt P87324 1-462, Pro292Ala | Gly293Ala)
T2 construct: Cdc1, S. pombe, double point mutant (A1 and A2 combined); source: yeast two-hybrid fusion, in S. cerevisiae CTY10-5d
T2 sequence (looked up): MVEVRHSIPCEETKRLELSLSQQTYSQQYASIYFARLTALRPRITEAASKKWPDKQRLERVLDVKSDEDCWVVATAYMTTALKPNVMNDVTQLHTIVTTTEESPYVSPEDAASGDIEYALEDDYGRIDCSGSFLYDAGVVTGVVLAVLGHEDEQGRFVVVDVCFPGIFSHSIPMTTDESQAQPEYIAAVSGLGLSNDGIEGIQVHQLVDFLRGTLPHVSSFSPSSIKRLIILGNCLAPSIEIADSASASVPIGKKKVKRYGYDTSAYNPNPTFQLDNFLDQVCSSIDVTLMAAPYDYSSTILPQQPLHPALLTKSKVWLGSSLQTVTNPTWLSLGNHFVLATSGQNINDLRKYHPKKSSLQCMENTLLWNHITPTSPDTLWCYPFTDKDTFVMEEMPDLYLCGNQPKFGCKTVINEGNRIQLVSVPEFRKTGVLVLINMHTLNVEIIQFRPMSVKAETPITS

Cdc1-J12 = molecular target: T3, Cdc1-J12 (Schizosaccharomyces pombe, UniProt P87324 1-462, Ser-GlyValProHisSer-Ile)
T3 construct: Cdc1, S. pombe, with a pentapeptide inserted after residue 7; source: yeast two-hybrid fusion, in S. cerevisiae CTY10-5d
T3 sequence (looked up): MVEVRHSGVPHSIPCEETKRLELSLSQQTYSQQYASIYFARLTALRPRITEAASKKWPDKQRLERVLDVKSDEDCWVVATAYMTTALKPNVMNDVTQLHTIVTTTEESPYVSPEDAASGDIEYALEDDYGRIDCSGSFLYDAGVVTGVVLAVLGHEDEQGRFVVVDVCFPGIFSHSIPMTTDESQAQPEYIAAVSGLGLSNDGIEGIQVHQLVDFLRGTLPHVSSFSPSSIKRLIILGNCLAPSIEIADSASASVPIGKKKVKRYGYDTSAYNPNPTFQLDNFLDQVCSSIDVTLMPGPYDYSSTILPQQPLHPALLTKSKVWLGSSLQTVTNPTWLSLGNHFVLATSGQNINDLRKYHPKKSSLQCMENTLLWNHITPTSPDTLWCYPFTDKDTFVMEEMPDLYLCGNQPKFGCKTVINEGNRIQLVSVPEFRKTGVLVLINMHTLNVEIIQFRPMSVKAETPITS

Cdc1-J2 = molecular target: T4, Cdc1-J2 (Schizosaccharomyces pombe, UniProt P87324 1-462, Tyr-ArgGlyThrProTyr-Ser)
T4 construct: Cdc1, S. pombe, with a pentapeptide inserted after residue 25; also called J18; J20; source: yeast two-hybrid fusion, in S. cerevisiae CTY10-5d
T4 sequence (looked up): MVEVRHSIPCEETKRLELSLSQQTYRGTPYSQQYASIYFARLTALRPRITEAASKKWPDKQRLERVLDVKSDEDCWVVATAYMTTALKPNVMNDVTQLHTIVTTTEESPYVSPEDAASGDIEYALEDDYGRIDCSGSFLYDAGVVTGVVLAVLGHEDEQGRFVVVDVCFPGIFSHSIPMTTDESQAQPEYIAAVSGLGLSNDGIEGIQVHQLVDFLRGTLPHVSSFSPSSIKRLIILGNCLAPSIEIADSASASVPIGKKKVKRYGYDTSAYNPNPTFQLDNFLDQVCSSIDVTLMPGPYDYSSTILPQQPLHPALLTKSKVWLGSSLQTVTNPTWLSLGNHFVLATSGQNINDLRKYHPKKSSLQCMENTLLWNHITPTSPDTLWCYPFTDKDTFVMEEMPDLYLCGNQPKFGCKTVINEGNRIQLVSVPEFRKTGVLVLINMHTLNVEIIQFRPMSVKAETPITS

B1: Cdc27 (fission yeast DNA polymerase delta C-subunit) (natural protein, Schizosaccharomyces pombe, UniProt P30261 1-372, looked up)
chain: MEEWRNFLDIKVINESSLVTVDNLSLQLDISSEKAQEYLNMFYQGNDFLYPIYLIHGQPIDDEINLEIDEESQPISNFPVLQYILCDKSSLQEKQSRLKSGYKTVIFALSSAPLSDFDELLPAVYEIREKDVLYKKEDADKYGFIFNENSVPRVLKKAPSTHSPQLSVPSKTSTIDKTDTRSTEKTKGKDIFSNARNQKGNSSRKNKKAPLENHKEKEPLLPKEEKLSEQAKRERDDLKNIMQLEDESVSTTSVHDSEDDNLDSNNFQLEIGTEAKSAAPDEPQEIIKSVSGGKRRGKRKVKKYATTKDEEGFLVTKEEEVWESFSEDENISTGTSNVVRNKPTTVNIATKKKNTAQSKPQQKSIMSFFGKK
notes: DNA polymerase delta C-subunit Cdc27, S. pombe; prey plasmid pGAD2F-Cdc27; also called pGAD2F-Cdc27; source: yeast two-hybrid fusion, in S. cerevisiae CTY10-5d
In the case of B1, the “two-hybrid beta-galactosidase activity, % of wild-type Cdc1” value (Cdc1-J16) is reported as under 1%, the “two-hybrid beta-galactosidase activity, % of wild-type Cdc1” value (Cdc1-A9) is reported as 58% and the “two-hybrid beta-galactosidase activity, % of wild-type Cdc1” value (Cdc1-J12) is reported as 59%. For the same binder, the “two-hybrid beta-galactosidase activity, % of wild-type Cdc1” value (Cdc1-J2) was under 1%.
